Kd, koff and kon data for two molecules are collected here from US20220332804A1 (CSL INNOVATION, published 2022).

The target of experiment [1] is T1, cynomolgus monkey FcRn/β2m (cynomolgus monkey, UniProt Q8SPV9 24-297; Q8SPW0 21-119, limits assumed).
T1 construct: injected in solution over immobilised antibody; also called Cyno FcRn/β2m
As to the kind of experiment: SPR, immobilised antibody, cyno FcRn/b2m analyte, pH 6.0. (In general: In SPR one partner is held on a chip, and binding of the other changes the refractive index at the surface.)
Procedure: (§1) Anti-C2 mAbs (1 μg/mL at pH 5) were immobilized on a carboxylmethyldextran (CM5) sensorchip surface using standard EDC/NHS chemistry. Human and Cyno FcRn/β2m (40 μM) were prepared in running buffer (10 mM HEPES, 150 mM NaCl, 10 mM MES adjusted to either pH 6 or pH 7.3) and injected on the immobilized anti-C2 surface at concentrations ranging from 0.078 to 40 μM, prepared in two-fold dilutions in running buffer. Association and dissociation phases were monitored for 180 and 600 seconds, respectively. […] Double referenced sensorgrams were fitted to either a 1:1 kinetic model (pH 6), including a term for mass transport limitation or to a 1:1 steady state model (pH 7.3) where responses at the end of the association phase were plotted against respective concentrations.
(§2) Binding to both human and cynomolgus monkey FcRn was tested using the SPR methods described above.

Experiment [2] concerns the target T1, cynomolgus monkey FcRn/β2m. As to the kind of experiment: SPR, immobilised antibody, cyno FcRn/b2m analyte, pH 7.3.
Procedure: as §1, §2
The target of experiment [3] is T2, human complement C2 zymogen (human, UniProt P06681 21-752).
T2 construct: also called huC2; human C2
T2 sequence: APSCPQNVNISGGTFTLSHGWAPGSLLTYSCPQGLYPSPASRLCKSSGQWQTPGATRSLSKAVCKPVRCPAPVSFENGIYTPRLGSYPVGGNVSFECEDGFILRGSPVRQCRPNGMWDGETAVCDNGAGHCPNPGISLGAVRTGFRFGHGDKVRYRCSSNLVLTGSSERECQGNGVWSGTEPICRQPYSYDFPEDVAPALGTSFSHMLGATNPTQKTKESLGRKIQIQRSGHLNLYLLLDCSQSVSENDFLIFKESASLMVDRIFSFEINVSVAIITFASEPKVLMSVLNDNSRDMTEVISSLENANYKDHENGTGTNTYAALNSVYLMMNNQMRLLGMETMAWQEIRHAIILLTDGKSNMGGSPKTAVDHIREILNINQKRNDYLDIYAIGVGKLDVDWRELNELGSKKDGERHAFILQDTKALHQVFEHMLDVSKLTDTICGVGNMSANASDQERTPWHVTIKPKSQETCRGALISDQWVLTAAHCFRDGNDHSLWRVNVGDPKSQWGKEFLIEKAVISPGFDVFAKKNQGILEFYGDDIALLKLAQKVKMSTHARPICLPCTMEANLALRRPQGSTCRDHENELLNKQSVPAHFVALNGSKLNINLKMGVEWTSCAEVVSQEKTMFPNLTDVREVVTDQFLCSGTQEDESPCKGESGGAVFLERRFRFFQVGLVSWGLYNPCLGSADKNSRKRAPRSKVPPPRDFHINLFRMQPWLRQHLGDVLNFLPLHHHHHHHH
As to the kind of experiment: SPR kinetics, captured antibody, analyte huC2 0 mM Ca^2+, pH 7.3.
Procedure: (§3) Surface plasmon resonance (SPR, Biacore) was used for all binding affinity analyses. In brief, goat anti-human IgG was directly immobilised onto the carboxymethyl dextran surface of CM5 sensorchips to approximately 12,000 RU using standard NHS/EDC chemistry at pH 5. The immobilised antibody surface was pre-conditioned with ten injections of polyclonal human IgG (Privigen 60 s) prepared at 1 μg/mL. Ligands (anti-C2 mAbs) were captured at the beginning of each cycle as described below. An adjacent spot or flow cell in which only Polyclonal IgG was capture was used as a reference surface. The goat anti-human IgG Fc antibody surface was regenerate in 100 mM H3PO4, injected for 45 seconds at the end of each cycle. Experiments were performed at 37° C. and the flow rate of each experiment was kept constant at 30 μL/min.

In experiment [4] the target is T2, human complement C2 zymogen. The experiment can be described thus: SPR kinetics, captured antibody, analyte huC2 (so in the source), pH 7.3.
Procedure: as §3
Experiment [5] shares this target. As to the kind of experiment: SPR steady state, captured antibody, analyte huC2 0 mM Ca^2+, pH 6.0.
Experiment [6] shares this target. The experiment can be described thus: SPR kinetics, captured antibody, analyte huC2 20 mM Ca^2+ (so in the source), pH 7.3.
Procedure: as §3
The target is the same in experiment [7]. The experiment can be described thus: SPR kinetics, captured antibody, analyte huC2 200 mM Ca^2+ (so in the source), pH 7.3.
Procedure: as §3
Experiment [8] has the same target. The experiment can be described thus: SPR kinetics, captured antibody, analyte huC2 2000 mM Ca^2+ (so in the source), pH 7.3.
Procedure: as §3
For experiment [9] the target is unchanged. The experiment can be described thus: SPR steady state, captured antibody, analyte huC2 20 mM Ca^2+ (so in the source), pH 6.0.
The target is the same in experiment [10]. The experiment can be described thus: SPR steady state, captured antibody, analyte huC2 200 mM Ca^2+ (so in the source), pH 6.0.
Experiment [11] shares this target. As to the kind of experiment: SPR steady state, captured antibody, analyte huC2 2000 mM Ca^2+ (so in the source), pH 6.0.
Experiment [12] addresses T1, cynomolgus monkey FcRn/β2m. The experiment can be described thus: SPR, immobilised antibody, cyno FcRn/b2m analyte, pH 6.0; pH 6.0.
Procedure: as §1, §2
Experiment [13] addresses T2, human complement C2 zymogen. The experiment can be described thus: SPR kinetics, captured antibody, analyte huC2 0 mM Ca^2+, pH 7.3. The source holds these as a separate data set.
Procedure: as §3
(§4) Sensogram data was double-referenced against a reference anti-IgG surface (i.e. minus anti-C2 mAb) and blank buffer injections obtained within each experiment. The binding data was fit to 1:1 (kinetic or steady-state) model using local Rmax and null refraction index (RI=0) when appropriate. Buffers and solutions were filtered (0.22 μm) prior to use.
(§5) Calcium concentrations ranged from zero (i.e. no added calcium, control) to near physiological levels (0.02, 0.2 and 2 mM CaCl₂.2H₂O, MW 147.02 Da).
Experiment [14] shares this target. The experiment can be described thus: SPR kinetics, captured antibody, analyte huC2 (so in the source), pH 7.3. This is another data set of the same source.
Procedure: as §3, §4, §5
Experiment [15] has the same target. The experiment can be described thus: SPR steady state, captured antibody, analyte huC2 0 mM Ca^2+, pH 6.0. The source holds these as a separate data set.
Procedure: as §3, §4, §5
Experiment [16] shares this target. The experiment can be described thus: SPR kinetics, captured antibody, analyte huC2 20 mM Ca^2+ (so in the source), pH 7.3. The source holds these as a separate data set.
Procedure: as §3, §4, §5
Experiment [17] has the same target. The experiment can be described thus: SPR kinetics, captured antibody, analyte huC2 200 mM Ca^2+ (so in the source), pH 7.3. This is another data set of the same source.
Procedure: as §3, §4, §5
Experiment [18] has the same target. The experiment can be described thus: SPR kinetics, captured antibody, analyte huC2 2000 mM Ca^2+ (so in the source), pH 7.3. This is another data set of the same source.
Procedure: as §3, §4, §5
The target is the same in experiment [19]. As to the kind of experiment: SPR steady state, captured antibody, analyte huC2 20 mM Ca^2+ (so in the source), pH 6.0. This is another data set of the same source.
Procedure: as §3, §4, §5
The target is the same in experiment [20]. As to the kind of experiment: SPR steady state, captured antibody, analyte huC2 200 mM Ca^2+ (so in the source), pH 6.0. This is another data set of the same source.
Procedure: as §3, §4, §5
Experiment [21] has the same target. The experiment can be described thus: SPR steady state, captured antibody, analyte huC2 2000 mM Ca^2+ (so in the source), pH 6.0. This is another data set of the same source.
Procedure: as §3, §4, §5

T1 sequence (Q8SPV9 24-297 limits assumed, chain 1 of 2): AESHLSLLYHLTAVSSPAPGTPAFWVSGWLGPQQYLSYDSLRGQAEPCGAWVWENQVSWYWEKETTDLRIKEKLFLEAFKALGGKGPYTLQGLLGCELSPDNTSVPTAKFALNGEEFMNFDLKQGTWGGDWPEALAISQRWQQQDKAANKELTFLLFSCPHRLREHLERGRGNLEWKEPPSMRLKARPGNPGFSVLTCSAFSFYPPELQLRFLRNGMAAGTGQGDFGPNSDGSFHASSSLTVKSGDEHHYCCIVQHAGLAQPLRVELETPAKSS
T1 sequence (Q8SPW0 21-119 limits assumed, chain 2 of 2): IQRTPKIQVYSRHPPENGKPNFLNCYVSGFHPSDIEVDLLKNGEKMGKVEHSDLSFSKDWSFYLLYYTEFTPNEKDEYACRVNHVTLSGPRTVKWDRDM

B1: RF16-226 YEY (Fc mutations M252Y, N286E, N434Y) (antibody, human IgG4 S228P, lambda)
heavy: EVQLVQSGAEVKKPGESLKISCKGSGYSFTSYWIGWVRQMPGKGLEWMGIIYPGDSDTRYSPSFQGQVTISADKSISTAYLQWSSLKASDTAMYYCARRFSYSSGWDMWGQGTLVTVSSASTKGPSVFPLAPCSRSTSESTAALGCLVKDYFPEPVTVSWNSGALTSGVHTFPAVLQSSGLYSLSSVVTVPSSSLGTKTYTCNVDHKPSNTKVDKRVESKYGPPCPPCPAPEFLGGPSVFLFPPKPKDTLYISRTPEVTCVVVDVSQEDPEVQFNWYVDGVEVHEAKTKPREEQFNSTYRVVSVLTVLHQDWLNGKEYKCKVSNKGLPSSIEKTISKAKGQPREPQVYTLPPSQEEMTKNQVSLTCLVKGFYPSDIAVEWESNGQPENNYKTTPPVLDSDGSFFLYSRLTVDKSRWQEGNVFSCSVMHEALHYHYTQKSLSLSLGK
light: SYELTQPPSVSVSPGQTARITCSGDALTSKYVAWYQQKSGLAPLLVIYEDTRRPSGIPAKFSGSSSGSVATLTISGAHGDDEADYYCYSTDASGHQRVFGGGTKLTVLSQPKAAPSVTLFPPSSEELQANKATLVCLISDFYPGAVTVAWKADGSPVKAGVETTKPSKQSNNKYAASSYLSLTPEQWKSHRSYSCQVTHEGSTVEKTVAPTECS
With B1, the Kd in [1] is 19 nM; in experiment [2], 2200 nM; in experiment [3] it was 8.7 nM; in [5], 84 nM; in experiment [6] it was 8.8 nM; in experiment [7], 9.2 nM. Further, the Kd is 10.7 nM in [8], 81.9 nM in experiment [9], 86.9 nM in experiment [10] and 105 nM in [11]. Further, the koff in [3] is 0.00521 s⁻¹; in experiment [6], 0.00516 s⁻¹; in experiment [7] it was 0.00527 s⁻¹; in experiment [8], 0.00573 s⁻¹. Moreover, the kon in [3] was 601000 M⁻¹ s⁻¹; in [4] it was 538000 M⁻¹ s⁻¹; in experiment [6] it was 585000 M⁻¹ s⁻¹; in [7], 573000 M⁻¹ s⁻¹.

B2: RF16-226 YTE (Fc mutations M252Y, S254T, T256E) (antibody, human IgG4 S228P, lambda)
heavy: EVQLVQSGAEVKKPGESLKISCKGSGYSFTSYWIGWVRQMPGKGLEWMGIIYPGDSDTRYSPSFQGQVTISADKSISTAYLQWSSLKASDTAMYYCARRFSYSSGWDMWGQGTLVTVSSASTKGPSVFPLAPCSRSTSESTAALGCLVKDYFPEPVTVSWNSGALTSGVHTFPAVLQSSGLYSLSSVVTVPSSSLGTKTYTCNVDHKPSNTKVDKRVESKYGPPCPPCPAPEFLGGPSVFLFPPKPKDTLYITREPEVTCVVVDVSQEDPEVQFNWYVDGVEVHNAKTKPREEQFNSTYRVVSVLTVLHQDWLNGKEYKCKVSNKGLPSSIEKTISKAKGQPREPQVYTLPPSQEEMTKNQVSLTCLVKGFYPSDIAVEWESNGQPENNYKTTPPVLDSDGSFFLYSRLTVDKSRWQEGNVFSCSVMHEALHNHYTQKSLSLSLGK
light: SYELTQPPSVSVSPGQTARITCSGDALTSKYVAWYQQKSGLAPLLVIYEDTRRPSGIPAKFSGSSSGSVATLTISGAHGDDEADYYCYSTDASGHQRVFGGGTKLTVLSQPKAAPSVTLFPPSSEELQANKATLVCLISDFYPGAVTVAWKADGSPVKAGVETTKPSKQSNNKYAASSYLSLTPEQWKSHRSYSCQVTHEGSTVEKTVAPTECS
For B2, the Kd in experiment [12] is 450 nM; in [13], 8.5 nM; in [15], 74.3 nM; in experiment [16] it was 7.9 nM; in [17] it was 8.3 nM; in [18] it was 9.9 nM. Also, the Kd in experiment [19] turned out to be 71 nM; in experiment [20], 74.6 nM; in experiment [21] it was 92.8 nM. The koff in experiment [13] worked out at 0.00495 s⁻¹; in experiment [16], 0.00521 s⁻¹; in experiment [17], 0.00543 s⁻¹; in experiment [18] it was 0.00592 s⁻¹. In addition, the kon in [13] amounted to 584000 M⁻¹ s⁻¹; in experiment [14], 601000 M⁻¹ s⁻¹; in experiment [16], 657000 M⁻¹ s⁻¹; in experiment [17], 653000 M⁻¹ s⁻¹.

The Kd is the free concentration of one partner at which half of the binding sites on the other are occupied at equilibrium, for simple one-to-one binding. In general, koff refers to a measure of how fast the partners let go of each other. By kon is commonly meant the second-order rate constant of association.
